The values below come from patent publication US8859223B1, “Compositions and methods for imaging beta-secretase activity in living cells and organisms” (Duke University, priority 2012, dated 2014).

Square brackets hold non-standard residues; d marks the D form. Ends that are not written are not given here. 2Thi = N[C@@H](Cc1cccs1)C(=O)O; Nva = CCC[C@H](N)C(=O)O

For one data set, the target named is T1, BACE (Homo sapiens, UniProt P56817). The experiment in a line: Evaluation of peptides as BACE substrates (percent cleavage by LC-MS). The class given is biochemical. The settings on record: 10 hr incubation with BACE enzyme, determined by LC-MS. Here is the method: In order to evaluate a range of peptide amino acid sequences as BACE substrates for the probes, the peptides shown below in Table II were incubated with BACE enzyme under conditions suitable for enzyme activity and the percent cleavage after 10 hr was determined by LC-MS. Thus, in addition to SEQ ID NO: 1 present in β-MAP, the peptide sequences corresponding to SEQ ID NO's: 2-6 and 10-11 can also be useful as BACE substrates in the BACE probes of the present disclosure. For example, the specific BACE substrate sequence can be chosen based on the level of cleavage desired for a particular use for which the probe will be utilized. In can be envisioned that a higher or a lower amount of BACE probe cleavage could be desirable based on the different uses of the BACE probes.
T1 sequence (P56817 46-501): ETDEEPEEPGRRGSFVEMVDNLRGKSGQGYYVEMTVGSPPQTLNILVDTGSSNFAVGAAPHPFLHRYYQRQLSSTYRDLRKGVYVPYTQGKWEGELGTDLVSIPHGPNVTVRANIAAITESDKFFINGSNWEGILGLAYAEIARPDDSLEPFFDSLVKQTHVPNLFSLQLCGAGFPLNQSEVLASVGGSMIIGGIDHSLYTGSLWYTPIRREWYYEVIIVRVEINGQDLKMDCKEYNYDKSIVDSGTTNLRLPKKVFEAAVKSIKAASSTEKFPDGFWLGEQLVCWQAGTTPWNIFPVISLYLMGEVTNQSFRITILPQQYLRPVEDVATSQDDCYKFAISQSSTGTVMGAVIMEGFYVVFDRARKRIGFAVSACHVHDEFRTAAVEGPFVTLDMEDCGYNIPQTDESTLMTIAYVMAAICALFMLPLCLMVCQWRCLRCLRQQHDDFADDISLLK
As to “APSL-DAHF (APSLDAHF) [peptide evaluated as BACE substrate]”, the “Percent Cleavage after 10 hr Incubation with BACE” value (shortened to “Percent Cleavage”) is reported as 0.5%.
The same measure, in the same setting: with “ASNL-DAHF (ASNLDAHF) [peptide evaluated as BACE substrate]” the entry was “Not Detected”; with “DETL-DAHF (DETLDAHF) [peptide evaluated as BACE substrate]”, 1%; with “EI(Thi)(Thi)-(Nva)AHF (EI[2Thi][2Thi][Nva]AHF) [BACE substrate polypeptide with unnatural amino acids thienyl and norvaline]”, 25%.
“EIDL-MVLD (EIDLMVLD) [BACE substrate polypeptide]”: the “Percent Cleavage” value was determined as 20%.
Same read-out and setting: with “EIDL-SSHD (EIDLSSHD) [BACE substrate polypeptide]” the figure was 5%; with “EVNF-EVEF (EVNFEVEF) [BACE substrate polypeptide]”, 85%; with “EVNL-DAEF (EVNLDAEF) [BACE substrate polypeptide]”, 50%.
Take “EVNL-DAHF (EVNLDAHF) [BACE substrate polypeptide]”: the “Percent Cleavage” value turned out to be 50%.
With “EVNL-SSHD (EVNLSSHD) [BACE substrate polypeptide]”, the “Percent Cleavage” value came to 3.5%.

In a further data set the target is T1, BACE.
Assay: not given
The note with it: compared to wild type; cited from earlier work.
Turning to “Swedish mutant APP: amyloid precursor protein with the Swedish mutation”, the “increase in Kcat/KM” value is 60 fold.
